In publication PMC5353646, “Allosteric modulation of peroxisomal membrane protein recognition by farnesylation of the peroxisomal import receptor PEX19” (Nature Communications, 2017):
Entries after “also recorded” stand apart in the source; their conditions may differ.

Legend:
[1] = Hydrophobic interaction chromatography; assay type: physicochemical; details: Butyl Sepharose FF, linear decreasing (NH4)2SO4 650–0 mM, 20 ml, 280 nm; for elution volume after start of the gradient: 20 mM potassium phosphate, pH 6.5, 50 mM NaCl, 500 μg protein; for ΔV, difference in elution volume between farnesylated and non-farnesylated protein: pH 6.5
Experimental: Purified PEX19 CTD and variants were adjusted to a buffer containing 650 mM (NH4)2SO4 and 500 μg protein was subjected to equilibrated Butyl Sepharose FF column (20 mM potassium phosphate, pH 6.5, 50 mM NaCl and 650 mM (NH4)2SO4). After washing, bound protein was eluted with linear decreasing (NH4)2SO4 concentrations (650–0 mM (NH4)2SO4, 20 ml). Eluted proteins were detected using 280 nm absorption. The binding strength is indicated by the elution volume and correlates with protein hydrophobicity.

[2] = 15N NMR relaxation, tumbling correlation time; assay type: physicochemical; details: for tumbling correlation time τc: 15N R2/R1 ratio, 750 MHz, 298 K, PEX19 CTD residues 161–299; for oligomeric state in solution: from τc, 15N NMR relaxation
Source text: NMR spectra were acquired at 298 K on a Bruker Avance III 600-MHz spectrometer with a TCI cryo-probe head, an Avance III 750-MHz spectrometer with a TXI probe head, or an Avance 900 instrument with a TXI cryo-probe head. Spectra were processed using NMRPipe[31] and analysed with Sparky[32]. Backbone assignment was done semi-automatically with MARS[33]. Backbone and side chain assignments were obtained from HNCA, HNCACB, CBCA(CO)NH, H(C)CH-TOCSY and (H)CCH-TOCSY spectra. ^13C- and ^15N- edited NOESY spectra with a mixing time of 70 ms were recorded to derive distance restraints. For NOEs between PEX19 and the farnesyl group, isotope-edited and filtered 3D NOESY spectra (70 and 100 ms mixing times) were acquired using specific isotope-labelled samples. ^15N R1, R2 relaxation rates and {^1H}-^15N heteronuclear NOEs were recorded at an Avance III 750 MHz spectrometer. Local correlation times were derived from the ^15N R2/R1 ratio[35]. For determination of solvent paramagnetic relaxation enhancement rates, gadolinium diethylene-triamine-penta-acetic-acid bismethylamide (Gd(DTPA-BMA)) was titrated to the protein samples[36][37][38]. Saturation recovery ^1H,^15N HSQC experiments with recovery times from 0.01 to 3 s were recorded at concentrations of 0, 1, 2, 3, 5, 7 and 10 mM Gd(DTPA-BMA). Peak intensities were fitted to an exponential recovery function according to equation I(τ)=I0−Aexp(−R1τ), where τ is the recovery delay, I(τ) is the peak intensity measured for the recovery delay τ, I0 is the maximum peak intensity, R1 is the longitudinal proton relaxation rate and A is the signal amplitude. To obtain the sPRE value, the proton R1 rates were collected for all measured concentrations of Gd(DTPA-BMA) cpara and a linear regression for the equation R1 (cpara)=msPRE cpara+ [drawing 1] was performed, where R1 (cpara) is the proton R1 measured at the concentration cpara of the paramagnetic compound, the slope msPRE corresponds to the sPRE and [drawing 2] is the fitted proton R1 in the absence of the paramagnetic compound[36]. For NMR titrations an ALDP peptide (sequence: AAKAGMNRVFLQRLL, residues 62–76 of human ALDP) was dissolved to a concentration of 5 mM in NMR buffer and added to ^15N-labelled PEX19 CTD with and without farnesylation in the same buffer up to a protein-peptide molar ratio of 1:10.

[3] = test system: PEX19-deficient human fibroblasts (ΔPEX19 T); test: Functional complementation of PEX19-deficient fibroblasts (peroxisomal protein import); assay type: cell-based; details: full-length PEX19 variants, 72 h after transfection
Source text: A bicistronic expression plasmid coding for eGFP-PTS1 and non-tagged PEX14 (pMF1220)[43] was kindly provided by Marc Fransen (Leuven, Belgium). pIRES2-HsPEX19-eGFP-PTS1 was constructed by replacing the open reading frame of PEX14 (BglII/SalI) with a DNA-cassette encoding the full-length open reading frame of human PEX19 as derived from BamHI/SalI digestion of pAH05 (ref. [44]). Single point mutations were introduced into the PEX19 sequence by Quickchange XL Site-directed Mutagenesis kit (Stratagene) using primer pairs (Supplementary Table 1). The bicistronic expression vectors coding for PEX19 variants and eGFP-PTS1 were transfected into the human cell-line ΔPEX19 T which was derived from PEX19-deficient Zellweger patient fibroblasts. ΔPEX19 T cells, characterized by a defect in peroxisome biogenesis were routinely authenticated by functional complementation assays as described below and checked for mycoplasma contamination using Venor GeM Advance Mycoplasm Detection Kit (Minerva Biolabs). The efficiency of transfection according to the Amaxa Cell Line Nucleofector Kit R protocol (Lonza Cologne AG) was always around 90%. After 72 h of transfection, cells were subjected to fluorescence and immunofluorescence microscopy using polyclonal antiserum against human PEX14 (ref. [45]) (1:400 diluted) or monoclonal antibodies against human PEX19 (BD Biosciences, MA5-17266 Thermo Scientific; 1:400 diluted). Statistical analysis was carried out from three independent transfections of each pIRES-PEX19-eGFP-PTS1 expression plasmid. Based on the appearance of eGFP-PTS1 fluorescence pattern, about 100 cells of each experiment were visually categorized into three classes, (i) full complementation of peroxisomal import as visualized by punctuate staining pattern, (ii) partial complementation as indicated by diffuse cytosolic staining with few dots, (iii) no complementation resulting in only cytosolic staining. All micrographs were recorded on a Zeiss Axioplan 2 microscope with a Zeiss Plan-Apochromat × 63/1.4 oil objective and an Axiocam MR digital camera, and were processed with AxioVision 4.6 software (Zeiss, Jena, Germany). The steady-state level of PEX19 expression was assessed by immunoblot analysis, using monoclonal mouse antibodies against HsPEX19 (BD Biosciences, MA5-17266; 1:1,000 diluted) (Supplementary Fig. 9).

B1: PEX19 CTD: human PEX19 C-terminal domain (residues 161–299) (protein)
chain: GMDEGDGEGNILPIMQSIMQNLLSKDVLYPSLKEITEKYPEWLQSHRESLPPEQFEKYQEQHSVMCKICEQFEAETPTDSETTQKARFEMVLDLMQQLQDLGHPPKELAGEMPPGLNFDLDALNLSGPPGASGEQCLIM
modifications: left off: His6, end not stated, cleaved
elution volume after start of the gradient [1]: 9.66 mL
ΔV, difference in elution volume between farnesylated and non-farnesylated protein [1]: 5.08 mL
tumbling correlation time τc [2]: 11.4 ns
oligomeric state in solution [2]: monomeric in solution

B2: M255R farn: farnesylated PEX19 CTD variant M255R (protein, UniProt P40855 161-299, looked up, variant M255R)
chain: GMDEGDGEGNILPIMQSIMQNLLSKDVLYPSLKEITEKYPEWLQSHRESLPPEQFEKYQEQHSVMCKICEQFEAETPTDSETTQKARFEMVLDLRQQLQDLGHPPKELAGEMPPGLNFDLDALNLSGPPGASGEQCLIM
modifications: C-terminal domain farnesylated
elution volume after start of the gradient [1]: 17.9 mL

B3: I195K: PEX19 CTD variant I195K (helix α2) (protein)
chain: GMDEGDGEGNILPIMQSIMQNLLSKDVLYPSLKEKTEKYPEWLQSHRESLPPEQFEKYQEQHSVMCKICEQFEAETPTDSETTQKARFEMVLDLMQQLQDLGHPPKELAGEMPPGLNFDLDALNLSGPPGASGEQCLIM
modifications: farnesyl group on Cys296 (CaaX box); left off: His6, end not stated, cleaved
elution volume after start of the gradient [1]: 8.40 mL
ΔV, difference in elution volume between farnesylated and non-farnesylated protein [1]: 8.01 mL

B4: M179R farn: farnesylated PEX19 CTD variant M179R (protein, UniProt P40855 161-299, looked up, variant M179R)
chain: GMDEGDGEGNILPIMQSIRQNLLSKDVLYPSLKEITEKYPEWLQSHRESLPPEQFEKYQEQHSVMCKICEQFEAETPTDSETTQKARFEMVLDLMQQLQDLGHPPKELAGEMPPGLNFDLDALNLSGPPGASGEQCLIM
modifications: C-terminal domain farnesylated
elution volume after start of the gradient [1]: 11.26 mL

B5: PEX19 CTD farnesylated: human PEX19 CTD (residues 161–299) farnesylated in vitro (protein)
chain: GMDEGDGEGNILPIMQSIMQNLLSKDVLYPSLKEITEKYPEWLQSHRESLPPEQFEKYQEQHSVMCKICEQFEAETPTDSETTQKARFEMVLDLMQQLQDLGHPPKELAGEMPPGLNFDLDALNLSGPPGASGEQCLIM
modifications: farnesyl group on Cys296 (CaaX box); left off: His6, end not stated, cleaved
notes: human PEX19 CTD (residues 161–299) farnesylated in vitro
elution volume after start of the gradient [1]: 14.74 mL
tumbling correlation time τc [2]: 10.5 ns
oligomeric state in solution [2]: monomeric in solution

B6: M179R: PEX19 CTD variant M179R (helix α1) (protein)
chain: GMDEGDGEGNILPIMQSIRQNLLSKDVLYPSLKEITEKYPEWLQSHRESLPPEQFEKYQEQHSVMCKICEQFEAETPTDSETTQKARFEMVLDLMQQLQDLGHPPKELAGEMPPGLNFDLDALNLSGPPGASGEQCLIM
modifications: left off: His6, end not stated, cleaved
functional complementation (in words) [3]: not capable of rescuing the ΔPEX19 phenotype; also recorded: cannot restore peroxisomal biogenesis
elution volume after start of the gradient [1]: 4.60 mL

B7: I195K farn: farnesylated PEX19 CTD variant I195K (protein, UniProt P40855 161-299, looked up, variant I195K)
chain: GMDEGDGEGNILPIMQSIMQNLLSKDVLYPSLKEKTEKYPEWLQSHRESLPPEQFEKYQEQHSVMCKICEQFEAETPTDSETTQKARFEMVLDLMQQLQDLGHPPKELAGEMPPGLNFDLDALNLSGPPGASGEQCLIM
modifications: C-terminal domain farnesylated
elution volume after start of the gradient [1]: 16.41 mL

B8: PEX19 I195K: full-length PEX19 variant I195K (protein, UniProt P40855 1-299, looked up, variant I195K)
chain: MAAAEEGCSVGAEADRELEELLESALDDFDKAKPSPAPPSTTTAPDASGPQKRSPGDTAKDALFASQEKFFQELFDSELASQATAEFEKAMKELAEEEPHLVEQFQKLSEAAGRVGSDMTSQQEFTSCLKETLSGLAKNATDLQNSSMSEEELTKAMEGLGMDEGDGEGNILPIMQSIMQNLLSKDVLYPSLKEKTEKYPEWLQSHRESLPPEQFEKYQEQHSVMCKICEQFEAETPTDSETTQKARFEMVLDLMQQLQDLGHPPKELAGEMPPGLNFDLDALNLSGPPGASGEQCLIM
modifications: full-length
functional complementation (in words) [3]: impaired although less strongly
cells showing restored peroxisomal protein transport (functional complementation) ([3]; at least 100 cells in three independent transfections, series of Fig. 3c): 23%

B9: PEX19 P273F/P274F: full-length PEX19 with two lid prolines replaced by phenylalanine (protein, UniProt P40855 1-299, looked up, variant P273F P274F)
chain: MAAAEEGCSVGAEADRELEELLESALDDFDKAKPSPAPPSTTTAPDASGPQKRSPGDTAKDALFASQEKFFQELFDSELASQATAEFEKAMKELAEEEPHLVEQFQKLSEAAGRVGSDMTSQQEFTSCLKETLSGLAKNATDLQNSSMSEEELTKAMEGLGMDEGDGEGNILPIMQSIMQNLLSKDVLYPSLKEITEKYPEWLQSHRESLPPEQFEKYQEQHSVMCKICEQFEAETPTDSETTQKARFEMVLDLMQQLQDLGHPPKELAGEMFFGLNFDLDALNLSGPPGASGEQCLIM
modifications: full-length
notes: full-length PEX19 with two lid prolines replaced by phenylalanine
cells displaying import-competent peroxisomes (complementation rate) ([3]; 100 cells each of three independent transfections, series of Fig. 5d): 20%
